Data on one substance can be found in article PMC8657308.

For test [1], the target named is PahZ2_(KT-1), poly(aspartic acid) hydrolase-2 of Sphingomonas sp. KT-1 (Sphingomonas sp. KT-1). Nature of the test: SEC.
For test [2] the target is unchanged. Nature of the test: SEC. This is another data set of the same source. In general terms: SEC sorts molecules by how far they enter the pores of the column.

Like-named read-outs stand apart in the source and are kept apart here.

For “PahZ2_(KT-1), poly(aspartic acid) hydrolase-2 of Sphingomonas sp. KT-1 (enzyme)”, the stoichiometry N in test [1] stood at 1.94; in test [2] it was 2.4.

As a reminder, the stoichiometry N is a count of units in the complex or per binding partner.
